Data as given in article PMC4631838, “Molecular architecture of the yeast Mediator complex” (eLife, 2015).

How the values were obtained:
Experiment in all cases: cross-linking; BS3 (unlabeled, or 50:50 with 2H12-labeled BS3) on the purified native holoenzyme; 150 mM NaPO4, 150 mM KOAc, pH 7.5, 5% glycerol, 2 mM DTT; procedure A 2.7 mM reagent 120 min on ice; trypsin digest, LC-MS/MS, Protein Prospector
Details in all cases: both partners purified
[1] = target: T1, Med14 (Rgr1), Mediator subunit (S. cerevisiae, UniProt P19263 1-1082)
T1 construct: Med14 (Rgr1), S. cerevisiae, endogenous, residues 1-1082 spoken of; source: endogenous, S. cerevisiae CB010 double-tagged strain; within the purified native holoenzyme
T1 sequence (looked up): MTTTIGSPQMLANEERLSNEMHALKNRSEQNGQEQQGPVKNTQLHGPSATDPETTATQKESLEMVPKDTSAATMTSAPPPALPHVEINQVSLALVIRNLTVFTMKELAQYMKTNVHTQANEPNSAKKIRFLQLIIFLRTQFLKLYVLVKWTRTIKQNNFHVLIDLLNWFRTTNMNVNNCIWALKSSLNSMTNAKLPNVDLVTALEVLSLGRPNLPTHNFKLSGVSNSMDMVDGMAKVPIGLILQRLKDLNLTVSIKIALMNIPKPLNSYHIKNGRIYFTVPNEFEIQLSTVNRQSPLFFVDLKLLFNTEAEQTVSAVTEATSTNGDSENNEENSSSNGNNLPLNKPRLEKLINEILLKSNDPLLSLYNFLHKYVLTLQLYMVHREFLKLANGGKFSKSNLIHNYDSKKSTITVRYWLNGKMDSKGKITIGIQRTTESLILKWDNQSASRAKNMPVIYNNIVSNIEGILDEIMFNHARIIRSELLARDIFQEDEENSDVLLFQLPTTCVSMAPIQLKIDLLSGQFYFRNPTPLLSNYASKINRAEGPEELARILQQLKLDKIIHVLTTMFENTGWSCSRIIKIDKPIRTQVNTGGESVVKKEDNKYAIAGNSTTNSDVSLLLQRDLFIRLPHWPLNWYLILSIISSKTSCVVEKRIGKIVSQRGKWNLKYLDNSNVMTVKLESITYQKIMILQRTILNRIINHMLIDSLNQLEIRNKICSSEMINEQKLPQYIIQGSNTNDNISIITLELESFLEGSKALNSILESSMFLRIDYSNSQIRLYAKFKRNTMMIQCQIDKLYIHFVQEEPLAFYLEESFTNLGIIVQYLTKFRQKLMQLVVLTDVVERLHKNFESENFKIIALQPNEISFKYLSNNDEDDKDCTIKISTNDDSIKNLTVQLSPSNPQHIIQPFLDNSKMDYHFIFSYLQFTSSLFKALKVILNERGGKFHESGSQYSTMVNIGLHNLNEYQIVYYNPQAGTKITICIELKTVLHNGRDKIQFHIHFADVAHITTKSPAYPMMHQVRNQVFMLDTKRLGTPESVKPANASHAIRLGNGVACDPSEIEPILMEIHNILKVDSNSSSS

[2] = target: T2, Med5 (Nut1), Mediator Tail module subunit (S. cerevisiae, UniProt P53114 1-1132)
T2 construct: Med5 (Nut1), S. cerevisiae, endogenous; source: endogenous, S. cerevisiae CB010 double-tagged strain; within the purified native holoenzyme
T2 sequence (looked up): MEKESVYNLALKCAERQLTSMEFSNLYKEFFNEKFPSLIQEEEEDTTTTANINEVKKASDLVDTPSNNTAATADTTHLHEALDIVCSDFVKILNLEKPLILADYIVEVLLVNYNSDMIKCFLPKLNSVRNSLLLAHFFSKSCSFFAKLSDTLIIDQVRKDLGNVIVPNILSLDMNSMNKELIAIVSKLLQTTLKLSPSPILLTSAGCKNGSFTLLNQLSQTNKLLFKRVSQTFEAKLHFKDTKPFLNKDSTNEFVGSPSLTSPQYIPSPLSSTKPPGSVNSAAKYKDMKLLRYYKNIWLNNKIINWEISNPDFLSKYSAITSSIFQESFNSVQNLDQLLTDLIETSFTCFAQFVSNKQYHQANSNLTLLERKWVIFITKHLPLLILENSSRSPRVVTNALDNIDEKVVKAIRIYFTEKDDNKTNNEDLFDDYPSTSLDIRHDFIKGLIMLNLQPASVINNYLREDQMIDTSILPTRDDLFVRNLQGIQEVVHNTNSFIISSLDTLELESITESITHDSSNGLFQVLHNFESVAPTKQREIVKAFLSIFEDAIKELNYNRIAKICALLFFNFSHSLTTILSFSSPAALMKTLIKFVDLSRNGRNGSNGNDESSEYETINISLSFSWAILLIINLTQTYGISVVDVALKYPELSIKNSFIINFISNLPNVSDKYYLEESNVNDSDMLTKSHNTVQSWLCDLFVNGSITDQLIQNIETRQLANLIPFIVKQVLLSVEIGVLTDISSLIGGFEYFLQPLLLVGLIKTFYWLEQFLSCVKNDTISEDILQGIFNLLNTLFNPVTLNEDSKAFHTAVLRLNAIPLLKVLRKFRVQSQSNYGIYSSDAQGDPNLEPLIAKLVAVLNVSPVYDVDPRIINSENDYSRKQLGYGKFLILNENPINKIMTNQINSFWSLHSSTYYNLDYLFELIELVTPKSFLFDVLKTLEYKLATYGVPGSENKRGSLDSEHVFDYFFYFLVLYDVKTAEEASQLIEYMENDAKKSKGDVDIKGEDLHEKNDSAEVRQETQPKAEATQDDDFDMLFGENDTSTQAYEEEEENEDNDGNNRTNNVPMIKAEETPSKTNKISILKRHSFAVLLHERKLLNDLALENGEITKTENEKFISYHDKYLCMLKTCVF

[3] = target: T3, Med1, Mediator Middle module subunit (S. cerevisiae, UniProt Q12321 1-566)
T3 construct: Med1, S. cerevisiae, endogenous; source: endogenous, S. cerevisiae CB010 double-tagged strain; within the purified native holoenzyme
T3 sequence (looked up): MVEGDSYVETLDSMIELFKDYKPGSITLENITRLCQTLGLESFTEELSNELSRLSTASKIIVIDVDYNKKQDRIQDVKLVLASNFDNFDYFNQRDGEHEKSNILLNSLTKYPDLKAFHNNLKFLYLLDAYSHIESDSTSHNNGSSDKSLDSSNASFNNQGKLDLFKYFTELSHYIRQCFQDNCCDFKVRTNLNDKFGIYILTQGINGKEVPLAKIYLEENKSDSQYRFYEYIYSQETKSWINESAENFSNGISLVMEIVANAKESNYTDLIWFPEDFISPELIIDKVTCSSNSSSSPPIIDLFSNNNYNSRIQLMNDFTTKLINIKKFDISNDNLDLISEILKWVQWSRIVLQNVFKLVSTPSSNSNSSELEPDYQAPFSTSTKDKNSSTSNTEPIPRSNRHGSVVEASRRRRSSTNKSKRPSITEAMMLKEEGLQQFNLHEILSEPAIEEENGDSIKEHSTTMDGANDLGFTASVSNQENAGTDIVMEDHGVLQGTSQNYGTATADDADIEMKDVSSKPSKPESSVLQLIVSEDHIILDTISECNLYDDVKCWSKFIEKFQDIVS

B1: Med15 (Gal11), Mediator Tail module subunit (natural protein, S. cerevisiae, UniProt P19659 1-1081, looked up)
chain: MSAAPVQDKDTLSNAERAKNVNGLLQVLMDINTLNGGSSDTADKIRIHAKNFEAALFAKSSSKKEYMDSMNEKVAVMRNTYNTRKNAVTAAAANNNIKPVEQHHINNLKNSGNSANNMNVNMNLNPQMFLNQQAQARQQVAQQLRNQQQQQQQQQQQQRRQLTPQQQQLVNQMKVAPIPKQLLQRIPNIPPNINTWQQVTALAQQKLLTPQDMEAAKEVYKIHQQLLFKARLQQQQAQAQAQANNNNNGLPQNGNINNNINIPQQQQMQPPNSSANNNPLQQQSSQNTVPNVLNQINQIFSPEEQRSLLQEAIETCKNFEKTQLGSTMTEPVKQSFIRKYINQKALRKIQALRDVKNNNNANNNGSNLQRAQNVPMNIIQQQQQQNTNNNDTIATSATPNAAAFSQQQNASSKLYQMQQQQQAQAQAQAQAQAQAQAQAQAQAAQAAQAQAQAQAQAQAQAQAQAQAQAQAQAQAQAQAQAHAQHQPSQQPQQAQQQPNPLHGLTPTAKDVEVIKQLSLDASKTNLRLTDVTNSLSNEEKEKIKMKLKQGQKLFVQVSNFAPQVYIITKNENFLKEVFQLRIFVKEILEKCAEGIFVVKLDTVDRLIIKYQKYWESMRIQILRRQAILRQQQQMANNNGNPGTTSTGNNNNIATQQNMQQSLQQMQHLQQLKMQQQQQQQQQQQQQQQQQQQQQQQHIYPSSTPGVANYSAMANAPGNNIPYMNHKNTSSMDFLNSMENTPKVPVSAAATPSLNKTINGKVNGRTKSNTIPVTSIPSTNKKLSISNAASQQPTPRSASNTAKSTPNTNPSPLKTQTKNGTPNPNNMKTVQSPMGAQPSYNSAIIENAFRKEELLLKDLEIRKLEISSRFKHRQEIFKDSPMDLFMSTLGDCLGIKDEEMLTSCTIPKAVVDHINGSGKRKPTKAAQRARDQDSIDISIKDNKLVMKSKFNKSNRSYSIALSNVAAIFKGIGGNFKDLSTLVHSSSPSTSSNMDVGNPRKRKASVLEISPQDSIASVLSPDSNIMSDSKKIKVDSPDDPFMTKSGATTSEKQEVTNEAPFLTSGTSSEQFNVWDWNNWTSAT
notes: Med15 (Gal11), S. cerevisiae, endogenous; source: endogenous, S. cerevisiae CB010 double-tagged strain; within the purified native holoenzyme
B1: binds [1]; binds [2].

B2: Med10 (Nut2), Mediator Middle module subunit (natural protein, S. cerevisiae, UniProt Q06213 1-157, looked up)
chain: MNGNSTNNEQLQQELATTQDQVASIIESFVELGVSIYDFPGTPEATKGMITNLQRNVDRLYKLNVRSNDPQSSLSKVDIPLEVVQYIEDGRNPDIYTREFVEAIRRSNQYQRGKMHGLKQLRDSLADKIVDEFPELKEPVEDIIKRTSPIDNVSNTH
notes: Med10 (Nut2), S. cerevisiae, endogenous; source: endogenous, S. cerevisiae CB010 double-tagged strain; within the purified native holoenzyme
B2: binds [1].

B3: Med17 (Srb4), Mediator Head module subunit (natural protein, S. cerevisiae, UniProt P32569 1-687, looked up)
chain: MTTEDPDSNHLSSETGIKLALDPNLITLALSSNPNSSLHSPTSDEPVPESAGKADTSIRLEGDELENKTKKDNDKNLKFLKNKDSLVSNPHEIYGSMPLEQLIPIILRQRGPGFKFVDLNEKELQNEIKQLGSDSSDGHNSEKKDTDGADENVQIGEDFMEVDYEDKDNPVDSRNETDHKTNENGETDDNIETVMTQEQFVKRRRDMLEHINLAMNESSLALEFVSLLLSSVKESTGMSSMSPFLRKVVKPSSLNSDKIPYVAPTKKEYIELDILNKGWKLQSLNESKDLLRASFNKLSSILQNEHDYWNKIMQSISNKDVIFKIRDRTSGQKLLAIKYGYEDSGSTYKHDRGIANIRNNIESQNLDLIPHSSSVFKGTDFVHSVKKFLRVRIFTKIESEDDYILSGESVMDRDSESEEAETKDIRKQIQLLKKIIFEKELMYQIKKECALLISYGVSIENENKVIIELPNEKFEIELLSLDDDSIVNHEQDLPKINDKRANLMLVMLRLLLVVIFKKTLRSRISSPHGLINLNVDDDILIIRPILGKVRFANYKLLLKKIIKDYVLDIVPGSSITETEVEREQPQENKNIDDENITKLNKEIRAFDKLLNIPRRELKINLPLTEHKSPNLSLMLESPNYCNALIHIKFSAGTEANAVSFDTTFSDFKEVEDFLHFIVAEYIQQKKV
notes: Med17 (Srb4), S. cerevisiae, endogenous, residues 1-687 spoken of; cross-linking was done after cleavage; also called Med17p; source: endogenous, S. cerevisiae CB010 double-tagged strain; within the purified native holoenzyme; not shown: TAP, N-terminal, cleaved
B3: binds [1].

B4: Med2, Mediator Tail module subunit (natural protein, S. cerevisiae, UniProt Q12124 1-431, looked up)
chain: MVVQNSPVSSVHTANFSERGSNTRTMTYKNKLTVCFDDILKVGAEMMMQQQLKNVQLDSYLVNGFSQSQQKLLKEKVKLFHGILDDLETSLSQSSSYLETLTALGKEKEKEREEAEKKRAEQENMRKVREQEELKKRQELEEASQQQQLQQNSKEKNGLGLNFSTTAPANTTDANGSKENYQELGSLQSSSQTQLENANAANNGAAFSPLTTTRIQSQQAQPSDVMFNDLNSMDISMFSGLDSTGFDSTAFNATVDETKGFDDNDSGNNYNDINISSIENNINNNINSTKNGKDNNNESNKNNNGDEKNKNNNEDNENNNNSSEKNNNNNNNNNNNNDDNGNNNNNNSGNDNNNTTNNDSNNKNNSITTGNDNENIVNNDLPTTVVSNPGDNPPPADNGEEYLTLNDFNDLNIDWSTTGDNGELDLSGFNI
notes: Med2, S. cerevisiae, endogenous; source: endogenous, S. cerevisiae CB010 double-tagged strain; within the purified native holoenzyme
B4: binds [1].

B5: Med4, Mediator Middle module subunit (natural protein, S. cerevisiae, UniProt Q12343 1-284, looked up)
chain: MSVQDTKAVEFSMGHIRSSSVSLVAEATSNTNSEDKLSKVQLYEDLCRYEDTLSKLVESVDRFKPNLDIAKDLIRTDEALFENVKLLAEYDNIYRNLQKIDKDSEELDSKTRKILEILNECHDELKALPMLEQVEFEKNTILQQRSKINSTELLDYATKLSKFTKIPPTFDKGAVGPNNFIWPAEDALRRGMLAMASLHSKELTRIPGEEVEETEVPTVPPSQSEEQKGQMAKKEGTPKTDSFIFDGTAKEVGDEADNTKDKEKEENNDDALDLDLDLFDPDDF
notes: Med4, S. cerevisiae, endogenous; source: endogenous, S. cerevisiae CB010 double-tagged strain; within the purified native holoenzyme
B5: binds [1]; binds [3].
